Key:
[1] = molecular target: Human αvβ3 integrin (Chemicon, #CC1018), biotinylated (human) (UniProt P06756); assay: flow cytometry, 293A cells displaying the ScFvFc, αVβ3-biotin 1 ug/ml, APC-streptavidin
[2] = molecular target: Human αvβ3 integrin (Chemicon, #CC1018), biotinylated (human) (UniProt P06756); assay: flow cytometry, 293A cells displaying the ScFvFc, αVβ3-biotin 5 ug/ml, APC-streptavidin
[3] = molecular target: Human αvβ3 integrin (Chemicon, #CC1018), biotinylated (human) (UniProt P06756); assay: flow cytometry, 293A cells displaying the ScFvFc, αVβ3-biotin 10 ug/ml, APC-streptavidin
[4] = molecular target: Human αvβ3 integrin (Chemicon, #CC1018), biotinylated (human) (UniProt P06756); assay: flow cytometry, 293A cells displaying the ScFvFc, αVβ3-biotin 0.5 ug/ml, APC-streptavidin
[5] = molecular target: Human αvβ3 integrin (Chemicon, #CC1018), biotinylated (human) (UniProt P06756); assay: flow cytometry, 293A cells displaying the ScFvFc, αVβ3-biotin 2.5 ug/ml, APC-streptavidin

Chain of Human αvβ3 integrin (Chemicon, #CC1018), biotinylated (human) (P06756 31-1048 limits assumed, chain 1 of 2): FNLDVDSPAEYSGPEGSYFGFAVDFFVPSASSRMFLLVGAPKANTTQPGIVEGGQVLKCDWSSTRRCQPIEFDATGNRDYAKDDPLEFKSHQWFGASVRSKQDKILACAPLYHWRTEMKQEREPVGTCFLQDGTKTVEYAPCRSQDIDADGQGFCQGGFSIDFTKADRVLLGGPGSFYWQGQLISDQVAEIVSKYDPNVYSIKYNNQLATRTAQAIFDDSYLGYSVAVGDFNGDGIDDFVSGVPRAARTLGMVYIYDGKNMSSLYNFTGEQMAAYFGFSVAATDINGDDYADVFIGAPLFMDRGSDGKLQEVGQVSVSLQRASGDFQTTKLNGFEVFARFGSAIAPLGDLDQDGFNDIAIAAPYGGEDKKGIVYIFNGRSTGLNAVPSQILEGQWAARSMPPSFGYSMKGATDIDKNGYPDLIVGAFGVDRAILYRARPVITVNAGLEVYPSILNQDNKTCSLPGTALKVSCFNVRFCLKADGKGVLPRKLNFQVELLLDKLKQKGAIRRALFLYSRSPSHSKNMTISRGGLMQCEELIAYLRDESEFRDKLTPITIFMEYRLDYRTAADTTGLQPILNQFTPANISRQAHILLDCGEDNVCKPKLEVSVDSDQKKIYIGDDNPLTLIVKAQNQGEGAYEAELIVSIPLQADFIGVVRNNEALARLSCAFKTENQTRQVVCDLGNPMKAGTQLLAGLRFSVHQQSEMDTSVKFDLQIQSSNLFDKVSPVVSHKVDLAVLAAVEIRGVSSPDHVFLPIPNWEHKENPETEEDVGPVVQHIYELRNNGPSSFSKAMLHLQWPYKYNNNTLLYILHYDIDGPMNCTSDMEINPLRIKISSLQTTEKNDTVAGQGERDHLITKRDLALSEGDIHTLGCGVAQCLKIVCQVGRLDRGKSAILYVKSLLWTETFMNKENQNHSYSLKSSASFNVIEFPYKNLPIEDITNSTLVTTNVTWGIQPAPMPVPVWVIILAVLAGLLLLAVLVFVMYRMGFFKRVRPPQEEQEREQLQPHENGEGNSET
Chain of Human αvβ3 integrin (Chemicon, #CC1018), biotinylated (human) (P05106 27-788 limits assumed, chain 2 of 2, further chain): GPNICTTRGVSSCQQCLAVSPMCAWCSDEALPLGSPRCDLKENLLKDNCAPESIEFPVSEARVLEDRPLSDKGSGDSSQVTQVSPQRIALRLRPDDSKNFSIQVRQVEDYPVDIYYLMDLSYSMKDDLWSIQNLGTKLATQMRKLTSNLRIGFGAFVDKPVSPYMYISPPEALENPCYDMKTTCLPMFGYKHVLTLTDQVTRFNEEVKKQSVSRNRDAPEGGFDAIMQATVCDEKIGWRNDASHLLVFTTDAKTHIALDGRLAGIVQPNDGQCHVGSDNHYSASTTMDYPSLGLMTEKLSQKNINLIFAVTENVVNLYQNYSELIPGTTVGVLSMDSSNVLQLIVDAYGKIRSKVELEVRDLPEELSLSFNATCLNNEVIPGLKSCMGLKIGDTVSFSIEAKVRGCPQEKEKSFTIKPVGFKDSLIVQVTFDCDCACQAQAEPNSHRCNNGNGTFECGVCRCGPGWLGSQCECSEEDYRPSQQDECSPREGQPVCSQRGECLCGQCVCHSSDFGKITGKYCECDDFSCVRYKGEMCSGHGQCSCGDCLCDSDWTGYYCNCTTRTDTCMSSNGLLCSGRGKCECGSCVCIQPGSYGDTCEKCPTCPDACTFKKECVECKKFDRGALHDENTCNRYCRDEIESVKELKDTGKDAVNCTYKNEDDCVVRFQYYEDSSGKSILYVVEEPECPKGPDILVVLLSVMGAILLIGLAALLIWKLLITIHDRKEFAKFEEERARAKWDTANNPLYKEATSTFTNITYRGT

B1: Abegrin anti-αvβ3 integrin ScFvFc, displayed on 293A cells (scFv, INN chains, looked up, V domains shown)
VH: QVQLVESGGGVVQPGRSLRLSCAASGFTFSSYDMSWVRQAPGKGLEWVAKVSSGGGSTYYLDTVQGRFTISRDNSKNTLYLQMNSLRAEDTAVYYCARHLHGSFASWGQGTTVTVSS
VL: EIVLTQSPATLSLSPGERATLSCQASQSISNFLHWYQQRPGQAPRLLIRYRSQSISGIPARFSGSGSGTDFTLTISSLEPEDFAVYYCQQSGSWPLTFGGGTKVEIK
modifications: scFv-Fc displayed on 293A cell surface
In the case of B1, the Percentage of positively stained cell [1] is reported as 83%, the Percentage of positively stained cell [2] is reported as 84% and the Percentage of positively stained cell [3] is reported as 90%. The Percentage of positively stained cell [4] was 81% and the Percentage of positively stained cell [5] was 85%.

From US20070111260A1
